The results in this text go back to PMC9076830, “Structure of the Arabidopsis guard cell anion channel SLAC1 suggests activation mechanism by phosphorylation” (Nature Communications, 2022).

The term stoichiometry N denotes a count of units in the complex or per binding partner.

The data set concerns the molecule itself. Kind of data set: cryo-EM structure; single-particle analysis of purified AtSLAC1 S59A in 25 mM HEPES pH 7.4, 150 mM NaCl, 0.03% digitonin; final refinement with C3 symmetry; 2.7 Å.

B1: Arabidopsis thaliana slow anion channel 1 (AtSLAC1) S59A mutant (natural protein, UniProt Q9LD83 1-556, looked up)
chain: MERKQSNAHSTFADINEVEDEAEQELQQQENNNNKRFSGNRGPNRGKQRPFRGFSRQVALETGFSVLNRESRERDDKKSLPRSGRSFGGFESGGIINGGDGRKTDFSMFRTKSTLSKQKSLLPSIIRERDIENSLRTEDGETKDDSINENVSAGRYFAALRGPELDEVKDNEDILLPKEEQWPFLLRFPIGCFGICLGLSSQAVLWLALAKSPATNFLHITPLINLVVWLFSLVVLVSVSFTYILKCIFYFEAVKREYFHPVRVNFFFAPWVVCMFLAISVPPMFSPNRKYLHPAIWCVFMGPYFFLELKIYGQWLSGGKRRLCKVANPSSHLSVVGNFVGAILASKVGWDEVAKFLWAVGFAHYLVVFVTLYQRLPTSEALPKELHPVYSMFIAAPSAASIAWNTIYGQFDGCSRTCFFIALFLYISLVARINFFTGFKFSVAWWSYTFPMTTASVATIKYAEAVPGYPSRALALTLSFISTAMVCVLFVSTLLHAFVWQTLFPNDLAIAITKRKLTREKKPFKRAYDLKRWTKQALAKKISAEKDFEAEEESHH
modifications: S146 and S543 identified as phosphorylated by mass spectrometry of the purified S59A mutant
notes: Slow anion channel 1 (SLAC1), Arabidopsis thaliana, full length, 556 residues; codon-optimised synthetic DNA; residues 150-517 modelled in the structure; No step that removes the tags is described; not shown: Flag, N-terminal, kept
Turning to B1, the “stoichiometry N” value was determined as 3.
